Source: patent US20240376170A1 (BRIGHT PEAK THERAPEUTICS, published 2024)
Blank lines part the entries; values can stand above or below the binder they belong to. Bridges are numbered along the chain shown (N, C = ends). Primed or numbered codes have the meaning given here. [ ]: non-standard residue; d: D form. Ygp(4) = Tyr with amino-capped PEG8 (O-(8x polyethylene glycol-amino)-tyrosine); Yn3(4) = Tyr with azide-capped PEG9 (O-(9x polyethylene glycol-azido)-tyrosine); Ygp = O-(8x polyethylene glycol-amino)-tyrosine (Tyr, amino-capped PEG8); Yn3 = O-(9x polyethylene glycol-azido)-tyrosine (Tyr, azide-capped PEG9); Ygp″ = O-(8x polyethylene glycol-amino)-tyrosine; Yn3″ = O-(9x polyethylene glycol-azido)-tyrosine; hSer = N[C@@H](CCO)C(=O)O; Nle = CCCC[C@H](N)C(=O)O

What was measured:
[1] = biological target: T1, Avi-tag Fc with human IL-2R beta and IL-2R gamma attached (Acrobiosystems ACRB-ILG-H82F3-25UG) (human, UniProt P14784 27-239; P31785 23-262); experiment: BLI (Octet R8), receptor on SAX2 sensor; construct CMP-167, intact (no MMP2)
T1 construct: Bought; attached to the SAX2 biosensor; also called CD122 CD132; IL-2R βγ; not shown: Fc and Avi-tag
T1 sequence (looked up) 1: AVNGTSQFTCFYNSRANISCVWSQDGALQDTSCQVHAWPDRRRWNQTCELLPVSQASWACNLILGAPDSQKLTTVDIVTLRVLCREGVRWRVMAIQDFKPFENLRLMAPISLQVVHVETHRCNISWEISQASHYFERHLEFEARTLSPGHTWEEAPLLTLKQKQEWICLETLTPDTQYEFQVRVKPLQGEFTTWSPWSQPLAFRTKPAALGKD
T1 sequence (looked up) 2: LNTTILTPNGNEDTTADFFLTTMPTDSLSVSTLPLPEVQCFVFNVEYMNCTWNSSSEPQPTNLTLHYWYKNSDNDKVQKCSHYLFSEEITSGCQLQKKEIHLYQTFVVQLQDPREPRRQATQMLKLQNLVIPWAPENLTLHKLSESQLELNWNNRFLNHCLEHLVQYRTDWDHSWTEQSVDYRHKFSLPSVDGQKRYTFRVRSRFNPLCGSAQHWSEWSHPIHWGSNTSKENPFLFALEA
Method: (§1) Bilayer interferometry (BLI) assays were used to measure the binding constants between activatable IL-2 polypeptides (and activated versions thereof) to IL-2 receptor subunits or receptor complexes. BLI assays were conducted on an Octet® R8 instrument. Assay plates were 96 well, polypropylene, F-bottom (chimney well), black microplates (Greiner Bio-one, Cat. No: 655209). The biosensors were Octet® SAX2 (Sartorius, Cat. No: 18-5136). The assay buffer was 1X Kinetic Buffer (Sartorius, Cat. no: 18-5136) or Phosphate Buffered Saline (PBS) that contained 0.02% (v: v) Tween 20 (Polysorbate 20) and 0.1% (w/v) bovine serum albumin (BSA). The sensor was regenerated between measurements in 10 mM glycine pH 2.7 buffer.
(§2) Sensor attached receptors were either recombinant human IL-2 receptor beta containing a His-tag and Avi-tag™ (R&D Systems™) or an Avi-tag™ Fc with human IL-2R beta and IL-2R gamma attached (Acrobiosystems Cat. no: ACRB-ILG-H₈₂F3-25UG). Receptors were reconstituted from lyophilized powder to 500 μg/ml in PBS. Analytes were diluted in Kinetic buffer to 300 nM, then serially diluted to lower concentrations.

[2] = biological target: T2, recombinant human IL-2 receptor beta containing a His-tag and Avi-tag (human, UniProt P14784 27-239); experiment: as above
T2 construct: Bought; attached to the SAX2 biosensor; also called CD122; IL-2R β; not shown: His-tag and Avi-tag
T2 sequence (looked up): T1 sequence (looked up) 1
Method: as §1, §2

[3] = biological target: T2, recombinant human IL-2 receptor beta …; experiment: BLI (Octet R8), receptor on SAX2 sensor
Method: as §1, §2

[4] = biological target: T1, Avi-tag Fc with human IL-2R beta and …; experiment: BLI (Octet R8), receptor on SAX2 sensor
Method: as §1, §2

[5] = biological target: T1, Avi-tag Fc with human IL-2R beta and …; experiment: BLI (Octet R8), receptor on SAX2 sensor; CMP-167 treated with MMP2 (cleaved)
Method: as §1, §2

[6] = biological target: T2, recombinant human IL-2 receptor beta …; experiment: as above
Method: as §1, §2

[7] = biological target: T2, recombinant human IL-2 receptor beta …; experiment: BLI (Octet R8), receptor on SAX2 sensor; construct CMP-328, not MMP2-treated
Method: as §1, §2

[8] = biological target: T1, Avi-tag Fc with human IL-2R beta and …; experiment: BLI (Octet R8), receptor on SAX2 sensor; construct CMP-313, not MMP2-treated
Method: as §1, §2

[9] = biological target: T2, recombinant human IL-2 receptor beta …; experiment: as above
Method: as §1, §2

[10] = biological target: T1, Avi-tag Fc with human IL-2R beta and …; experiment: BLI (Octet R8), receptor on SAX2 sensor; CMP-166 treated with MMP2 (cleaved)
Method: as §1, §2

[11] = biological target: T2, recombinant human IL-2 receptor beta …; experiment: as above
Method: as §1, §2

B2: CMP-167, MMP2 cleaved (ligand)
chain: APTSSSTKKTQLQLEHLLLDLQKILNGINNYKNPKLTR[Nle]L[hSer][Yn3″]KF[Ygp″][Nle]PKKATELKHLQCLEEELKPLEEVL[hSer]LAQSKNFHLRPRDLISNINVIVLELKGSETTF[hSer]CEYADETATIVEFLNRWITFSQSIISTLT
modifications: ends and bridges not checked; also: MMP2 cleaved, ring opened, cut site and remnants not given here
notes: Tested after MMP2 treatment
koff [4]: 0.000923 s⁻¹ | kon [4]: 594000 M⁻¹ s⁻¹ | koff [3]: 0.227 s⁻¹ | kon [3]: 345000 M⁻¹ s⁻¹ | Kd [5]: 1.55 nM | Kd [6]: 658 nM

B4: CMP-313 (ligand)
chain: APTSSSTKKTQLQLEHLLLDLQKILNGINNYKNPKLTR[Nle]L[hSer][Yn3(4)]KF[Ygp(4)][Nle]PKKATELKHLQCLEEELKPLEEVL[hSer]LAQSKNFHLRPRDLISNINVIVLELKGSETTF[hSer]CEYADETATIVEFLNRWITFSQSIISTLT
modifications: not fully specified; ends and bridges not checked; also: Lys23 side chain carries an attached cleavable peptide moiety (structure only in drawing)
notes: Synthetic IL-2 polypeptide, tested intact
koff [4]: 0.00148 s⁻¹ | Kd [8]: 3.4 nM | Kd [9]: 163 nM

B5: CMP-166, MMP2 cleaved (ligand)
chain: APTSSSTKKTQLQLEHLLLDLQKILNGINNYKNPKLTR[Nle]L[hSer][Yn3]KF[Ygp][Nle]PKKATELKHLQCLEEELKPLEEVL[hSer]LAQSKNFHLRPRDLISNINVIVLELKGSETTF[hSer]CEYADETATIVEFLNRWITFSQSIISTLT
modifications: also: glutaryl-PEG4-peptide bridge Ala1 to Lys23 cut by MMP2, site not given here, ring opened
notes: Tested after MMP2 treatment
koff [4]: 0.000684 s⁻¹ | kon [4]: 567000 M⁻¹ s⁻¹ | koff [3]: 0.225 s⁻¹ | kon [3]: 283000 M⁻¹ s⁻¹ | Kd [10]: 1.21 nM | Kd [11]: 794 nM

More lines, now with the values ahead:

Kd [1]: 23.8 nM | Kd [2]: 215 nM | koff [3]: 0.993 s⁻¹
B1: CMP-167 (ligand)
chain: APTSSSTKKTQLQLEHLLLDLQKILNGINNYKNPKLTR[Nle]L[hSer][Yn3]KF[Ygp][Nle]PKKATELKHLQCLEEELKPLEEVL[hSer]LAQSKNFHLRPRDLISNINVIVLELKGSETTF[hSer]CEYADETATIVEFLNRWITFSQSIISTLT
modifications: bridge N-23; not fully specified (bridges); ends not checked

koff [4]: 0.00194 s⁻¹ | Kd [7]: 0.034 nM
B3: CMP-328 (ligand)
chain: APTSSSTKKTQLQLEHLLLDLQEILNGINNYKNPKLTR[Nle]L[hSer][Yn3]KF[Ygp][Nle]PKKATELKHLQCLEEELKPLEEVL[hSer]LAQSKNFHLRPRDLISNINVIVLELKGSETTF[hSer]CEYADETATIVEFLNRWITFSQSIISTLT
modifications: bridge 9-23; not fully specified (bridges)
notes: as for B4
